# Measured values taken from patent publication US20240024426A1, “HYPOTENSIVE PHARMACEUTICAL COMPOSITION COMPRISING TRIPLE ACTIVATOR HAVING ACTIVITY FOR ALL OF GLUCAGON, GLP-1, AND GIP RECEPTORS” (HANMI PHARM. CO., LTD., priority 2020, published 2024).
# Bridges are numbered along the chain shown (N, C = ends). Where no end group is shown, it is not given here. [ ]: non-standard residue; d: D form. The star is where a group is joined. Acetyl(2-(4-imidazolyl)) = O=C(Cc1c[nH]cn1)*; Aib = CC(C)(N)C(=O)O
# T1: human GIP receptor (human, UniProt P48546 22-466)
# T1 sequence (looked up): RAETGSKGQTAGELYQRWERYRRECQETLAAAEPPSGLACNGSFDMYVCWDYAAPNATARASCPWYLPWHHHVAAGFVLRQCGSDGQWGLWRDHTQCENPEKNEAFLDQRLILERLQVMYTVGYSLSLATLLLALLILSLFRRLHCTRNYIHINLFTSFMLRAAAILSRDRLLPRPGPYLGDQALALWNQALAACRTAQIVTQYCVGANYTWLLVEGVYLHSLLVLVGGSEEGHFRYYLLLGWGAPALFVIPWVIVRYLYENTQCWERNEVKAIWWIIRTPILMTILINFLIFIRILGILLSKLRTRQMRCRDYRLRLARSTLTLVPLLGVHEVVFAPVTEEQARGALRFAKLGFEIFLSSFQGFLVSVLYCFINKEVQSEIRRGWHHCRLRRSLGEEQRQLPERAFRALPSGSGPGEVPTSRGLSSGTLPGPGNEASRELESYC
# Key:
# Assay in all cases: cell-based or functional assay
# human GLP-1 receptor = human GLP-1 receptor (human, UniProt P43220 24-463)
# human GCG receptor = human GCG receptor (human, UniProt P47871 26-477)
# Chain of human GCG receptor (P47871 26-477): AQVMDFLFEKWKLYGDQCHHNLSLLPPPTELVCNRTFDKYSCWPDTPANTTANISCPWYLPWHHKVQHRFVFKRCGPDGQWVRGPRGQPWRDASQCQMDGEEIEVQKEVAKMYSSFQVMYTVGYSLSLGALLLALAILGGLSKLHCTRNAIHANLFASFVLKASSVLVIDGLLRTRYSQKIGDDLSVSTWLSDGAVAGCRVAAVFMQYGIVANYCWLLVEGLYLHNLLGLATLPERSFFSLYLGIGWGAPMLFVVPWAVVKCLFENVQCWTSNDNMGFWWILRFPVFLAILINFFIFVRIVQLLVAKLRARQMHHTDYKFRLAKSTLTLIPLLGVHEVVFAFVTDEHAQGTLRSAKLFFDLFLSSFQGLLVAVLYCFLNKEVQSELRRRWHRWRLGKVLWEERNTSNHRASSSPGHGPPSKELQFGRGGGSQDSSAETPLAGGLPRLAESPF
# human GIP receptor = target: T1, human GIP receptor
Binder,In vitro activity compared with native peptide (%) vs. GLP-1 (human GLP-1 receptor) [%],In vitro activity compared with native peptide (%) vs. Glucagon (human GCG receptor) [%],In vitro activity compared with native peptide (%) vs. GIP (human GIP receptor) [%]
H[Aib]QGTFTSDYSKYLDEKACKEFVQWLLAQ (bridge 16-20) [Triple agonist of SEQ ID NO: 31],135,2.2,2.4
H[Aib]QGTFTSDVSSYLLGQAAKQFIAWLVKGGGPSSGAPPPSC [Triple agonist of SEQ ID NO: 3],1.8,< 0.1,< 0.1
{Acetyl(2-(4-imidazolyl))}-GQGTFTSDLSKQMDSEAQQLFIEWLKNGGPSSGAPPPSHG [Triple agonist of SEQ ID NO: 16],2.1,< 0.1,< 0.1
H[Aib]QGTFTSDCSKYLDSRAAQDFVQWLLDGGPSSGAPPPS [Triple agonist of SEQ ID NO: 26],64.5,0.2,< 0.1
Y[Aib]QGTFTSDYSKYLDECRAKEFVQWLLDHHPSSGQPPPS (bridge 16-20) [Triple agonist of SEQ ID NO: 21],17.8,267,22.7
Y[Aib]QGTFTSDYSKCLDEKRAKEFVQWLLDHHPSSGQPPPS (bridge 16-20) [Triple agonist of SEQ ID NO: 22],20.1,140,59.7
H[Aib]QGTFTSDYSKYLDEKACKDFVQWLLDGGPSSGAPPPS (bridge 16-20) [Triple agonist of SEQ ID NO: 32],151,1.7,8.8
H[Aib]QGTFTSDYSKYLDEKRAQEFVCWLLAQKGKKNDWKHNIT [Triple agonist of SEQ ID NO: 28],17.2,1.6,< 0.1
H[Aib]QGTFTSDYSKYLDERACQDFVQWLLDQGGPSSGAPPPS [Triple agonist of SEQ ID NO: 27],83.1,0.8,0.9
[Acetyl(2-(4-imidazolyl))]GQGTFTSDLSKQMDSERAREFIEWLKNTGPSSGAPPPSHG [Triple agonist of SEQ ID NO: 18],< 0.1,< 0.1,< 0.1
Y[Aib]QGTFTSDYSKYLDECRAKEFVQWLKNGGPSSGAPPPS (bridge 16-20) [Triple agonist of SEQ ID NO: 24],41.2,9.3,< 0.1
[Acetyl(2-(4-imidazolyl))]GQGTFTSDLSIQYEEEAQQDFVEWLKDTGPSSGAPPPSHG [Triple agonist of SEQ ID NO: 20],< 0.1,< 0.1,< 0.1
Y[Aib]QGTFTSDYSKYLDECRAKEFVQWLLAQKGKKNDWKHNIT (bridge 16-20) [Triple agonist of SEQ ID NO: 23],4.01,9.3,< 0.1
H[Aib]QGTFTSDYSIAMDEIHQKDFVNWLLAQKC (bridge 16-20) [Triple agonist of SEQ ID NO: 33],24.5,< 0.1,10.4
H[Aib]QGTFTSDYSKYLDEKAAKEFVQWLLNTC (bridge 16-20) [Triple agonist of SEQ ID NO: 29],38.5,6,< 0.1
H[Aib]QGTFTSDCSKYLDERAAQDFVQWLLDGGPSSGAPPPS [Triple agonist of SEQ ID NO: 25],82.6,0.1,< 0.1
H[Aib]QGTFTSDYSKYLDEKAQKEFVQWLLDTC (bridge 16-20) [Triple agonist of SEQ ID NO: 30],142,0.7,0.8
[Acetyl(2-(4-imidazolyl))]GQGTFTSDLSIQYDSEHQRDFIEWLKDTGPSSGAPPPSHG [Triple agonist of SEQ ID NO: 19],< 0.1,< 0.1,< 0.1
{Acetyl(2-(4-imidazolyl))}-GQGTFTSDLSKQMDEERAREFIEWLLAQKPSSGAPPPSHG [Triple agonist of SEQ ID NO: 17],0.2,< 0.1,< 0.1
